Here are results for one substance from PMC2694808.

Several values for one entry are separate records, joined by “and”; a condition that tells them apart may be missing. Identical values can stand only once.

In the data set the test system is Hfq. The data set can be described thus: EMSA. The following applies: 40 or 100 mM NH4Cl, 10 mM Tris-HCl pH 7.5, 5 mM Mg acetate, 0.1 mM DTT, 37°C (EMSA 10 min; SPR Biacore 2000). (In EMSA bound probe runs differently from free probe, usually more slowly.)

Consider invE RNA probe (140 nt), for which the K half was 1.7 nM and 6.2 nM.
